Assay results from patent US20150306058A1, “COMPOSITION COMPRISING A SINGLE VARIABLE DOMAIN AND CAMOSTAT MESYLATE (CM)” (Glaxo Group Limited, priority 2012, published 2015).

Assays:
[1] = Transition midpoint (Tm) of dAbs, thermal stability (DSC); type: physicochemical
Description: “Transition midpoint” or “Tm” is the temperature where 50% of the single variable domain is in its native conformation and the other 50% is denatured. In an embodiment, the single variable domain has a high Tm. In particular the Tm is greater than or equal to about 66° C. The thermal stability of a single variable domain, including the Tm, may be determined using Differential Scanning calorimetry (DSC).
For these Examples, high Tm dAb™ refers to a dAb™ with a Tm of 66° C., and low Tm dAb™ refers to a dAb™ with a Tm of 56° C.

[2] = Recovery of DOM101 from gut tissue and plasma after intra-duodenal administration, TNFR1-specific MSD assay; type: in vivo, Han Wistar rats
Description: Han Wistar rats were dosed with 1 mg DOM101 in the presence or absence of 100 mg CM, to determine if CM preserved the dAb™ in the gastrointestinal tract. Rats were briefly anaesthetised by isoflurane anaesthetic and a midline abdominal incision made to facilitate location of the duodenum for direct intra-duodenal injection (500 μl) of the dose formulations. Following dosing, the abdominal incisions were closed and the rats allowed to recover prior to their return to study cages. Direct dosing into the duodenum bypassed the acidic conditions of the gastric juices in the stomach and allowed for direct analysis of pharmacokinetics in the intestinal tract.
Animals were culled at the following time-points: 0.5, 1.5, 3, 5, 7 and 18 hours (three animals per group).
Blood samples were taken and the intestinal tract dissected out and divided into its constituent parts: duodenum (×2), jejunum (×6), ileum, caecum, colon (×2), rectum.
(§1) Intestinal samples were homogenised using the GentleMACS™ Dissociator in lysis buffer containing detergent and protease inhibitors. Samples were screened for DOM101 using a TNFR1-specific MSD™ assay. In brief, MSD plates were coated with TNFR1-Fc. Plates were washed and blocked with bovine serum albumin. Tissue samples were diluted and added to the plate, along with a standard curve of dAb™, then incubated at room temperature to allow binding. Plates were washed and a sulfo-tag-conjugated anti-Vh antibody was added to the wells. After incubation, the plate was washed and incubated with MSD read buffer. The resulting electrochemiluminescence signal was read on a Sector Imager 6000.
Results are expressed as nanograms per gram of tissue in FIG. 6.

[3] = Recovery of DOM101 from the large intestine after intra-colonic administration; type: in vivo, Han Wistar rats; conditions: 1 mg DOM101 intra-colonic
Description: as §1
Han Wistar rats were dosed with 1 mg DOM101 in the presence or absence of CM, to determine if camostat mesylate also preserved the dAb™ in the large intestinal tract. In brief, rats were anaesthetised by isoflurane anaesthetic, a midline abdominal incision made to facilitate location of the colon and 500 ul dose of the dose formulations injected directly into the colon. Following dosing, the abdominal incisions were loosely closed and the rats maintained under isoflurane anaesthesia and monitored for the duration of the experiment. […]
Samples were homogenised and screened as stated in Example 4. Results are expressed as nanograms per gram of tissue in FIG. 7.

[4] = 1 mg DOM101 intra-duodenal, absence of CM

B1: DOM1: domain antibody (single variable domain), Vκ framework, SEQ ID NO: 1 (antibody, V domains shown)
VL: DIQMTQSPSSLSASVGDRVTITCRASQDIYLNLDWYQQKPGKAPKLLINFGSELQSGVPSRFSGSGYGTDFTLTISSLQPEDFATYYCQPSFYFPYTFGQGTKVEIKR
modifications: Amino acid sequence identified using molecular biology techniques.
Tm (° C.) [1]: 55 °C

B2: DOM101: TNFR1 specific dAb, SEQ ID NO: 6 (protein)
VHH: EVQLLESGGGLVQPGGSLRLSCAASGFTFAHETMVWVRQAPGKGLEWVSHIPPDGQDPFYADSVKGRFTISRDNSKNTLYLQMNSLRAEDTAVYHCALLPKRGPWFDYWGQGTLVTVSS
modifications: Amino acid sequence identified using molecular biology techniques.
amount of dAb detectable in the ileum (in words) [2, 4]: small amounts
time at which dAb was detectable in the duodenum [2, 4]: 0.5 h
time up to which dAb was detectable in the jejunum [2, 4]: up to 1.5 h
time after dosing at which dAb was detectable throughout the GI tract ([2]; 1 mg DOM101 intra-duodenal, presence of 100 mg CM): 7 h
level in plasma ([2]; after intra-duodenal dosing, data not shown): less than 0.1 % of the total dose
dAb levels at 3 h in the absence of CM compared with the two CM groups (in words) ([3]; absence of CM, particularly caecum and rectum): substantially reduced
dAb levels in caecum, colon and rectum at 0.5 h (in words) ([3]; presence or absence of CM, rectum except 10 mg camostat group): High levels

B3: DOM6: domain antibody (single variable domain), Vh framework, SEQ ID NO: 4 (protein)
VHH: EVQLLESGGGLVQPGGSLRLSCAASGFTFSEGTMWWVRQAPGKGLEWVSAILAAGSNTYYADSVKGRFTISRDNSKNTLYLQMNSLRAEDTAVYYCAKKRQERDGFDYWGQGTLVTVSS
modifications: Amino acid sequence identified using molecular biology techniques.
Tm (° C.) [1]: 55.8 °C

B4: DOM7: domain antibody (single variable domain), Vh framework, SEQ ID NO: 5 (protein)
VHH: EVQLLESGGGLVQPGGSLRLSCAASGSTFTDDRMWWVRQAPGKGLEWVSAIQPDGHTTYYADSVKGRFTISRDNSKNTLYLQMNSLRAEDTAVYYCAEQDVKGSSSFDYWGQGTLVTVSS
modifications: Amino acid sequence identified using molecular biology techniques.
Tm (° C.) [1]: 50.6 °C

B5: DOM2: domain antibody (single variable domain), Vh framework, SEQ ID NO: 2 (protein)
VHH: EVQLLESGGGLVQPGGSLRLSCAASGFTFRNFGMGWVRQAPGKGLEWVSWIISSGTETYYADSVKGRFTISRDNSKNTLYLQMNSLRAEDTAVYYCAKSLGRFDYWGQGTLVTVSS
modifications: Amino acid sequence identified using molecular biology techniques.
Tm (° C.) [1]: 55.9 °C

B6: DOM3: domain antibody (single variable domain), Vh framework, SEQ ID NO: 3 (protein)
VHH: EVQLLESGGGLVQPGGSLRLSCAASGFTFAHETMVWVRQAPGKGLEWVSHIPPDGQDPFYADSVKGRFTISRDNSKNTLYLQMNSLRAEDTAVYHCALLPKRGPWFDYWGQGTLVTVSS
modifications: Amino acid sequence identified using molecular biology techniques.
Tm (° C.) [1]: 65 °C
